# Results as given in patent US6521741.
# B1: tobacco etch virus (TEV) protease (protein)
# chain: GESLFKGPRDYNPISSTICHLTNESDGHTTSLYGIGFGPFIITNKHLFRRNNGTLLVQSLHGVFKVKNTTTLQQHLIDGRDMIIIRMPKDFPPFPQKLKFREPQREERICLVTTNFQTKSMSSMVSDTSCTFPSSDGIFWKHWIQTKDGQCGSPLVSTRDGFIVGIHSASNFTNTNNYFTSVPKNFMELLTNQEAQQWVSGWRLNADSVLWGGHKVFMSKPEEPFQPVKEATQLMNELVYSQ
# Target: TLHL
protein,measurement,value
B1,proteolytic cleavage seen on SDS-PAGE,"Incubation of TLHL with the TEV protease in PBS at room temperature or at 4 °C produced therefore, a 19kD band on an SDS-PAGE gel"
